The source of these data is PMC3253120 (PLoS ONE, 2012).

First the molecules themselves.
B1: ciA-H11 (VHH)
VHH: QVQLVESGGGLVQPGGSLRLSCTASTLTLNYYAIGWFRQAPGKEREGVSCTGSSGGSTVYIDSVKGRFTVVRDNAKNMVYLQMDSLQPEDTAVYYCAADDLRCGRGWSSYFRGSWGQGTQVTVSS
notes: also called JEC-11; source: E. coli, purified as a thioredoxin fusion protein
B2: ciA-D1 (VHH)
VHH: QVQLVESGGGLVQPGGSLRLSCATSGFTLEYYAIGWFRQAPGKGREGVACMNSSGGGTNYADSVKGRFTISRDNAKKMVYLQMNSLKSEDTAVYYCVVDDFRCGSRWAAYLRSSWGQGTQVTVSS
notes: also called JDT-2; source: E. coli, purified as a thioredoxin fusion protein
B3: ciA-H4 (VHH)
VHH: SGGGLVQSGGSLRLSCAASVLTLEYYAIGWFRQAPGKEREGISCTGSSGGSTVYIDSVKGRFTVVRDNAKNMVYLQMDSLQPEDTAVYYCAADDLRCGRGWSSYFRGSWGQGTQVTVSS
notes: also called JEC-3; source: E. coli, purified as a thioredoxin fusion protein

The target of this assay is purified recombinant BoNT/A light chain (Lc) (Clostridium botulinum). The assay can be described thus: ELISA. The conditions noted are these: both partners purified.
On to B1, for which the binding result is “binds”.

For B2, the binding result is listed as “binds”.

For B3, the binding result is “binds”.
